Columns and labels:
[1] = molecular target: T1, Human LILRA6 on transiently transfected HEK293-6E cells (human, UniProt Q6PI73 24-481); assay: flow cytometry, transiently transfected HEK293-6E cells
T1 construct: whole, on cells; also called hLILRA6
Protocol: (§1) To determine that the anti-LILRB2 antibodies specifically bind to LILRB2 and not other LILRB and LILRA family members, a cross-reactivity assay was performed. Cross-reactivity of the LILRB2 antibodies to other LILRB proteins was assessed by antibody binding to transiently transfected HEK293-6E cells, measured by flow cytometry. Binding was evaluated to HEK293-6E cells transiently transfected with human LILRB-1, -2, -3, -4, and 5 plasmids (Origene, Nos. RC219949, RC217935, RC211228, RC220932, RC206516) or to cells transiently transfected with human LILRA-1, -2, -4, -5, and -6 plasmids (Origene, Nos. RC210808, RC205626, RC220452, RC212310 RC212965). […] Murine primary antibodies to LILRA and LILRB targets and corresponding isotype controls were used to confirm specific binding of all targets tested (R&D Systems) while an AF647 F(ab′)₂ fragment goat anti-mouse antibody (Jackson ImmunoResearch, No. 115-606-062) was used for the detection of bound positive control antibodies. No binding of B2A-IgG4 or B2A-IgG1 to LILRB-1, -3, -4, or -5 was observed, and no binding of either antibody to LILRA-1, -2, -4, -5, or -6 was observed, confirming specificity of these antibodies.
(§2) Select humanized variant antibodies were tested for their ability to bind other LILRB or LILRA family members, using the method and commercially available positive control antibodies of Example 5.

[2] = molecular target: T2, Human LILRB3 on transiently transfected HEK293-6E cells (human, UniProt O75022 24-631); assay: as above
T2 construct: whole, on cells; also called hLILRB3
Protocol: as §1, §2

[3] = molecular target: T3, Human LILRA4 on transiently transfected HEK293-6E cells (human, UniProt P59901 24-499); assay: as above
T3 construct: whole, on cells; also called hLILRA4
T3 sequence (P59901 24-499): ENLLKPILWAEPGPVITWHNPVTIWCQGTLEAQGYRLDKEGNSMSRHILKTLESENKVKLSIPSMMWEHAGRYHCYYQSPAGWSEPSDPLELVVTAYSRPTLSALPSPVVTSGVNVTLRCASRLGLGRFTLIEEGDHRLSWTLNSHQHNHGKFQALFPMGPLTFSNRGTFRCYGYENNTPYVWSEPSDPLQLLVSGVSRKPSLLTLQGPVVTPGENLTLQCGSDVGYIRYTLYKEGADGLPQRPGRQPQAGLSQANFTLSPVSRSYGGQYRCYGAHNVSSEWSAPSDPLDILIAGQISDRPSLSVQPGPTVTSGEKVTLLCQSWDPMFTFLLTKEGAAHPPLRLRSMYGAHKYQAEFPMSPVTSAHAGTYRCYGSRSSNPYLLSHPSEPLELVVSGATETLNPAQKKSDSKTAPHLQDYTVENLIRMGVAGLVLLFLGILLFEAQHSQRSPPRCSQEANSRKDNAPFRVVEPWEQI
Protocol: as §1, §2

[4] = molecular target: T4, Human LILRA2 on transiently transfected HEK293-6E cells (human, UniProt Q8N149 24-483); assay: as above
T4 construct: whole, on cells; also called hLILRA2
T4 sequence (Q8N149 24-483): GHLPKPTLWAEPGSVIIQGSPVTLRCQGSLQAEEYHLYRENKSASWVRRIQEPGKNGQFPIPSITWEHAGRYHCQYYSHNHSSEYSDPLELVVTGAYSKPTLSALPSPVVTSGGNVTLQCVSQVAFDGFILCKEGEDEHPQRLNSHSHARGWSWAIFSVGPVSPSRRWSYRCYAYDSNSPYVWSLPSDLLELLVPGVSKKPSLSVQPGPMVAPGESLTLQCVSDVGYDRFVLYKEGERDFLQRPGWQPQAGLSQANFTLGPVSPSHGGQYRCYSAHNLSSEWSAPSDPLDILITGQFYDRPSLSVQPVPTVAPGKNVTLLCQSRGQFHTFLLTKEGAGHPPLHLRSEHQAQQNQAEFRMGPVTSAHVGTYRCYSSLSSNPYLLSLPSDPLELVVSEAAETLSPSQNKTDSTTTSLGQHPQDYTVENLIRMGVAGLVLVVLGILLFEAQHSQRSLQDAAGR
Protocol: as §1, §2

[5] = molecular target: T5, Human LILRA5 on transiently transfected HEK293-6E cells (human, UniProt A6NI73 42-299); assay: as above
T5 construct: whole, on cells; also called hLILRA5
T5 sequence (A6NI73 42-299): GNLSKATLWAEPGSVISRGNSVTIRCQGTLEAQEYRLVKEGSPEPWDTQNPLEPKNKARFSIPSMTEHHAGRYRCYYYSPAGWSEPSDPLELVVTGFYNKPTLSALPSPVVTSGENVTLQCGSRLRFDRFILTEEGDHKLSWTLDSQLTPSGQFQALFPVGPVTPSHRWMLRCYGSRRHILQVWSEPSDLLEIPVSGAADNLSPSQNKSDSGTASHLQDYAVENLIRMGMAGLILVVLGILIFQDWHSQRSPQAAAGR
Protocol: as §1, §2

[6] = molecular target: T6, Human LILRB5 on transiently transfected HEK293-6E cells (human, UniProt O75023 24-590); assay: as above
T6 construct: whole, on cells; also called hLILRB5
T6 sequence (O75023 24-590): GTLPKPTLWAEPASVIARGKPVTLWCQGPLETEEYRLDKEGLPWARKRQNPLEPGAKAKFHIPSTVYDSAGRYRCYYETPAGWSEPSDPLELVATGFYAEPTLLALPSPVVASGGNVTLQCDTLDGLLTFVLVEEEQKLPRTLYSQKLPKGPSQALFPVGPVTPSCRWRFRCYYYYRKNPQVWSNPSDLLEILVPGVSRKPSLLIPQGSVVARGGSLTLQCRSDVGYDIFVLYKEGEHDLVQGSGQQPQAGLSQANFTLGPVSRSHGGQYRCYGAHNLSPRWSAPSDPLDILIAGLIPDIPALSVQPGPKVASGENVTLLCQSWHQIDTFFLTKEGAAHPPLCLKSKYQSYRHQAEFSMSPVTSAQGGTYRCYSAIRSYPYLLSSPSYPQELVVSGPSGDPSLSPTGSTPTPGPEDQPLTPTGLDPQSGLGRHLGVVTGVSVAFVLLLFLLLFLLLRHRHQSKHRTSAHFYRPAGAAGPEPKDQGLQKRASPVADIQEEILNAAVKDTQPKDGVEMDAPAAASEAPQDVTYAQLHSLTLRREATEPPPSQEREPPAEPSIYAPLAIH
Protocol: as §1, §2

[7] = molecular target: T7, Human LILRB1 on transiently transfected HEK293-6E cells (human, UniProt Q8NHL6 24-650); assay: as above
T7 construct: whole, on cells; also called hLILRB1
T7 sequence (Q8NHL6 24-650): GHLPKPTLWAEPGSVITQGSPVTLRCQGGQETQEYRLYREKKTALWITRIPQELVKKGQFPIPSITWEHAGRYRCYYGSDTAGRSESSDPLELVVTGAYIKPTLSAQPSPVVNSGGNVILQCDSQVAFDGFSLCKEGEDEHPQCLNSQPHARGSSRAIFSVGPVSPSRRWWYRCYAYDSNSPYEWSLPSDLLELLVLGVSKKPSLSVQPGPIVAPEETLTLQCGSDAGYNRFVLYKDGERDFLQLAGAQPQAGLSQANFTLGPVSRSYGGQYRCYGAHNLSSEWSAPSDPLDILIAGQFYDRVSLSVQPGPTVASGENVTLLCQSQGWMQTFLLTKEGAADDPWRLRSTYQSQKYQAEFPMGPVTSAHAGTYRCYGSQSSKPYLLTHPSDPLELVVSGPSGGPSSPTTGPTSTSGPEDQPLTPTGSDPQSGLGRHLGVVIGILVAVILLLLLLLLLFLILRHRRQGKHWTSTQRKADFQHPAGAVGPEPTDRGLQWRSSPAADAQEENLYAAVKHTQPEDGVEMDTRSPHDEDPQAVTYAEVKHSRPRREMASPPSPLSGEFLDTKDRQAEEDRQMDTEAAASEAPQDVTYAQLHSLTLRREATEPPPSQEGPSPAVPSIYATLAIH
Protocol: as §1, §2

[8] = molecular target: T8, Human LILRA1 on transiently transfected HEK293-6E cells (human, UniProt O75019 17-489); assay: as above
T8 construct: whole, on cells; also called hLILRA1
T8 sequence (O75019 17-489): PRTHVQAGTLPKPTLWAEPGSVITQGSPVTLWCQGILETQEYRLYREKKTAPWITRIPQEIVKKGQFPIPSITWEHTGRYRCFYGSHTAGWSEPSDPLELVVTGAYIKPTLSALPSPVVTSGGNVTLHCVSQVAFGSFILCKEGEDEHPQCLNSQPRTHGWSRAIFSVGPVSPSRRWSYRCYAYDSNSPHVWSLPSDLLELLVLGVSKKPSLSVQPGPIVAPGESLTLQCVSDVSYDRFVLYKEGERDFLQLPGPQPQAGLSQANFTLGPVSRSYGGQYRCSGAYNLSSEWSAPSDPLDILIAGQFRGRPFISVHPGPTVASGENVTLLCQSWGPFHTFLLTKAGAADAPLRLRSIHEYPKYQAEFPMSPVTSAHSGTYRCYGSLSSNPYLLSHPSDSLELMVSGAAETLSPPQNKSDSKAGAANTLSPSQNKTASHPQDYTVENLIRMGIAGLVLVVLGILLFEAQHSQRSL
Protocol: as §1, §2

[9] = molecular target: T9, Human LILRB2 on transiently transfected HEK293-6E cells (human, UniProt Q8N423 22-597); assay: as above
T9 construct: whole, on cells; also called hLILRB2
T9 sequence (Q8N423 22-597): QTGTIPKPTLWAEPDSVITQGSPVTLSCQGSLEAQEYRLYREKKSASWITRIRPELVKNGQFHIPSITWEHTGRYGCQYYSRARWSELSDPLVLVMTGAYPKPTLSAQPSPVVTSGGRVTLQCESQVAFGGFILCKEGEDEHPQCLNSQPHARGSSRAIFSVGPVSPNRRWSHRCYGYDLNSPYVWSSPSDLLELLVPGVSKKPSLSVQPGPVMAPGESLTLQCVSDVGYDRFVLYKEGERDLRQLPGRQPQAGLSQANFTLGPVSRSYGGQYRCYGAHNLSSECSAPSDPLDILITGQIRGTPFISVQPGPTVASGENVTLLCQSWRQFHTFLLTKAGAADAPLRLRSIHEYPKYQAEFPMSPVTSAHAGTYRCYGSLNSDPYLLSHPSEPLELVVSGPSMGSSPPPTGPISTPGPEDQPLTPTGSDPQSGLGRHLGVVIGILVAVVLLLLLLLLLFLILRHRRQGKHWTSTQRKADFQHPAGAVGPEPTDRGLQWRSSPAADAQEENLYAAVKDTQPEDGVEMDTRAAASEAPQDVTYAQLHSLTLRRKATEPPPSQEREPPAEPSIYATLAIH
Protocol: as §1, §2

[10] = molecular target: T10, Recombinant human LILRB2 protein (ELISA antigen) (human, UniProt Q8N423 22-460); assay: ELISA, plate-coated recombinant human LILRB2
T10 construct: also called LILRB2-His; recombinant LILRB2
T10 sequence (Q8N423 other isoform, or with tags, fused parts or gaps limits assumed): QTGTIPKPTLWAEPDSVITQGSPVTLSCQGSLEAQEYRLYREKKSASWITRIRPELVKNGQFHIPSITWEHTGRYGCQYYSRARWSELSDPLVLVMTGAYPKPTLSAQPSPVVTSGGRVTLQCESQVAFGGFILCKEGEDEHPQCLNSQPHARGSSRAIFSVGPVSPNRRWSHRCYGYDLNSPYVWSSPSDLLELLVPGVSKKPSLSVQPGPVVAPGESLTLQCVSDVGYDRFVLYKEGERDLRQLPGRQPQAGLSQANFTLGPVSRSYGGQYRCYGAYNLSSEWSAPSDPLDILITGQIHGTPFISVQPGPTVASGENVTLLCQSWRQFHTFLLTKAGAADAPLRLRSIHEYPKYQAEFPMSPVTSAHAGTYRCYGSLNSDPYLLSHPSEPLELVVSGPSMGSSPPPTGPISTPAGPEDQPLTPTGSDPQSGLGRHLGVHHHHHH
Protocol: To confirm binding to human and cynomolgus LILRB2, antibodies in supernatants were evaluated for binding by enzyme-linked immunosorbent assay (ELISA). Recombinant LILRB2 proteins (human: SEQ ID NO: 48; cynomolgus) were diluted in PBS to 2 μg/mL and added to 384-well high-binding ELISA plates (Greiner Bio-One Microlon™) at 25 μL/well and incubated at 4° C. overnight. The plates were washed three times with Wash Buffer (0.05% Tween® 20 in PBS), using a microplate washer and then blocked with 90 μL/well of ELISA Blocking Buffer A (1% BSA in PBS) for 1 hour at room temperature (RT). After blocking, 25 μL/well of LILRB2 antibodies or isotype control were added to the plates and incubated for 1 hour at RT. After primary antibody binding, plates were washed three times with Wash Buffer using a microplate washer. Secondary detection antibody (HRP-goat anti-rabbit Fab fragment) was diluted to 1:3000 in assay diluent (1% BSA in PBS) and 25 μL/well was added to plates and incubated at RT protected from light for 1 hour. Following incubation, plates were washed four times with Wash Buffer, using a microplate washer. After removal of the final wash, 25 μL/well of 1-Step™ Ultra TMB-ELISA Substrate Solution (Thermo Fisher, No. 34028) was added and plates were incubated for 5-10 min at RT, protected from light. After development, the reaction was stopped by addition of 25 μL/well of 0.3 M HCl, and plates were read using an EnVision (Perkin Elmer) microplate reader at 450 nm. EC₅₀ values were calculated based on log concentration of the primary antibodies at optical density at 450 nm.
Select humanized variant antibodies were purified and tested for their ability to bind human LILRB2 by ELISA, using the method described in Example 2, and binding to HEK293T cells expressing human LILRB2, using the method described in Example 4. Representative data are shown for IgG4 variants in Table 6.

T1 sequence (Q6PI73 24-481): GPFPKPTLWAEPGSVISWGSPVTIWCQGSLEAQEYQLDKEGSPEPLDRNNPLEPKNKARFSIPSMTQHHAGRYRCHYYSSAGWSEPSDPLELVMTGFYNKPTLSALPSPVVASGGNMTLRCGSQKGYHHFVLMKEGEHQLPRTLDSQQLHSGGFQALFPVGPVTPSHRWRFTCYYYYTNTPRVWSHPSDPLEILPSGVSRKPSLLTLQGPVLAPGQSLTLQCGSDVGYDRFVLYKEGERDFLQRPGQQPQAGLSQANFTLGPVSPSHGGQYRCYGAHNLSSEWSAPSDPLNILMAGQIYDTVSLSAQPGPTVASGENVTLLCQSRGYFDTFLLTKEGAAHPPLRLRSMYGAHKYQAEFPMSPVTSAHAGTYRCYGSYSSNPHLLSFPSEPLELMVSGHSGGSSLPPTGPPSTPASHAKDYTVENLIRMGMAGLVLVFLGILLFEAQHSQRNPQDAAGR

Bmax (MFI) [1] [MFI] | Bmax (MFI) [2] [MFI] | BMAX [gMFI] [3] [gMFI] | Bmax (MFI) [4] [MFI] | Bmax (MFI) [5] [MFI] | Bmax (MFI) [6] [MFI] | Bmax (MFI) [7] [MFI] | Bmax (MFI) [8] [MFI] | Bmax (MFI) [9] [MFI] | EC50 [10] [ng/mL] | Binder
214 | 154 | 112 | 37.7 | 129 | 138 | 41.4 | 783 | 11000 | – | B2H1-55 (antibody, V domains shown, Humanized variant, human IgG1 / kappa; also called humanized variant B2H1-55; humanized LILRB2 antibody B2H1-55) VH: EVQLLESGGGLVQPGTSLTLSCAASGFSLSTYAMSWVRQAPGKGLEWIGWIYNDGSTYYAAWAKGRFTISKDTSKTTLYLQITSLRAEDTATYFCAREGDYIGYFNIWGQGTLVTVSS VL: DVVMTQTPSSVSAALGGTVTIKCQASQSIGSNLAWYQLKPGQRPKLLIYAAATLASGGSSRFKGSGSGTDFTLTISSLEPADAATYYCQSYVSGSSDVAFGGGTEVVVK
211 | 163 | 104 | 40.4 | 124 | 147 | 41.9 | 837 | 11300 | – | B2A-IgG1 (antibody, Rabbit variable regions on human IgG1 / kappa constant regions; AF647-conjugated in some flow assays; also called B2A-IgG1 chimera; anti-LILRB2 B2A-IgG1) heavy: not shown light: DVVMTQTPSSVSAALGGTVTIKCQASQSIGSNLAWYQLKPGQRPKLLIYAAATLASGGSSRFKGSGSGTDFTLTISDLECADAATYYCQSYVSGSSDVAFGGGTEVVVKRTVAAPSVFIFPPSDEQLKSGTASVVCLLNNFYPREAKVQWKVDNALQSGNSQESVTEQDSKDSTYSLSSTLTLSKADYEKHKVYACEVTHQGLSSPVTKSFNRGEC
– | – | – | – | – | – | – | – | – | 2.35 | B2A-IgG4 (antibody, Rabbit variable regions on human IgG4 / kappa constant regions; also called B2A-IgG4 chimera; Parent B2A-IgG4) heavy: not shown light: DVVMTQTPSSVSAALGGTVTIKCQASQSIGSNLAWYQLKPGQRPKLLIYAAATLASGGSSRFKGSGSGTDFTLTISDLECADAATYYCQSYVSGSSDVAFGGGTEVVVKRTVAAPSVFIFPPSDEQLKSGTASVVCLLNNFYPREAKVQWKVDNALQSGNSQESVTEQDSKDSTYSLSSTLTLSKADYEKHKVYACEVTHQGLSSPVTKSFNRGEC

Reference: patent US20240132589A1 (ONCORESPONSE, published 2024)
